These results are taken from patent US20100260668A1 (published 2010).

Test [1] concerns the target T1, DLL4 ECD/His tag (R&D 1506-D4-050) (UniProt Q9NR61 27-529).
T1 construct: extracellular domain; Bought antigen coated on the ELISA plate; not shown: His tag
As to the kind of experiment: direct bind ELISA, DLL4 on plate; DLL4 VD N-term.; HC Long, LC Long. Background: In an ELISA, binding on a coated surface is turned into a signal by an enzyme label.

Test [2] deals with T1, DLL4 ECD/His tag (R&D 1506-D4-050). As to the kind of experiment: direct bind ELISA, DLL4 on plate; DLL4 VD N-term.; HC Short, LC Short.
Experimental: (§1) Enzyme Linked Immunosorbent Assays to screen for antibodies that bind a desired target antigen were performed as follows. […] Plates were washed four times with PBS containing 0.02% Tween 20. Plates were blocked by the addition of 300 μL/well blocking solution (non-fat dry milk powder, various retail suppliers, diluted to 2% in PBS) for ½ hour at room temperature. Plates were washed four times after blocking with PBS containing 0.02% Tween 20.
(§2) Alternatively, one hundred microliters per well of 10 μg/ml of Histidine (His) tagged desired target antigen (R&D Systems, Minneapolis, Minn.) was added to ELISA plates coated with monoclonal mouse anti-polyHistidine antibody as described above and incubated for 1 hour at room temperature. Wells were washed four times with PBS containing 0.02% Tween 20.
Plates were washed 4 times with PBS containing 0.02% Tween 20.
For test [3] the target is unchanged. Description: direct bind ELISA, DLL4 on plate; DLL4 VD N-term.; HC Long, LC Short.
Experimental: as §1, §2
One hundred microliters of antibody or DVD-Ig preparations diluted in blocking solution as described above was added to the desired target antigen plate or desired target antigen/FC fusion plate or the anti-polyHistidine antibody/His tagged desired target antigen plate prepared as described above and incubated for 1 hour at room temperature. Wells are washed four times with PBS containing 0.02% Tween 20.
The target in test [4] is T2, human DLL4 extracellular domain (human, UniProt Q9NR61 27-529, biotin label in the Notch-1 competition ELISA (sites not given)). As to the kind of experiment: cell-based or functional assay.
Test [5] has as its target T3, human DLL4 on 293G-human DLL4 cells (human, UniProt Q9NR61 27-685).
T3 construct: whole, on cells; no method paragraph describes this FACS assay
As to the kind of experiment: FACS: inhibition of Notch1 binding to 293G-human DLL4 cells (competitor Notch1). A general note: In flow cytometry, cells or beads pass a laser one at a time.

Test [6] concerns the target T4, VEGF (biotinylated VEGF; VEGF165) (UniProt P15692-4 27-191, biotinylated (sites not given)).
T4 construct: the method paragraph says only 'biotinylated VEGF'
As to the kind of experiment: competition ELISA: DVD-Ig pre-incubated with 2 nM biotinylated VEGF, then on coated VEGFR1 ECD-Fc (competitor VEGFR1-Fc).

Test [7] has as its target T2, human DLL4 extracellular domain. Description: competition ELISA: 14 nM biotin-labelled human DLL4 ECD pre-mixed with DVD-Ig, then on coated human Notch-1 (competitor Notch-1).
Experimental: Plates were then washed once with wash buffer (PBS, 0.05% Tween 20) and blocked with 200 μl/well blocking buffer (D-PBS, 1% BSA, 1 mM CaCl₂, 0.05% Tween 20) for 1 hour at 25° C.

T4 sequence (P15692 other isoform, or with tags, fused parts or gaps limits assumed): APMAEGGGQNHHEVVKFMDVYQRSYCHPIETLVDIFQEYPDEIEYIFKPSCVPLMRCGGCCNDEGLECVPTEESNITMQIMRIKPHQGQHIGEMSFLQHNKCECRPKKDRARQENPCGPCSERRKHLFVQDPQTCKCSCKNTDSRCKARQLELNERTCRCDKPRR

B1: DVD497 (bispecific antibody, human IgG1, kappa)
heavy: not shown
light: DIQMTQSSSYLSVSLGGRVTITCKASDHINNWLAWYQQKPGNAPRLLISGATSLETGVPSRFSGSGSGKDYTLSITSLQTEDVATYYCQQYWSIPLTFGAGTKLELKRTVAAPSVFIFPPDIQMTQSPSSLSASVGDRVTITCRASQVIRRSLAWYQQKPGKAPKLLIYAASNLASGVPSRFSGSGSGTDFTLTISSLQPEDFATYYCQQSNTSPLTFGQGTKVEIKRTVAAPSVFIFPPSDEQLKSGTASVVCLLNNFYPREAKVQWKVDNALQSGNSQESVTEQDSKDSTYSLSSTLTLSKADYEKHKVYACEVTHQGLSSPVTKSFNRGEC
notes: DVD-Ig; outer AB072 (DLL4), inner AB071 (VEGF); HC long, LC long linker; also called DVD497H; DVD497L
The term EC50 denotes the concentration needed to bring the measured effect to its halfway point. Read a low EC50 as higher potency in that assay. Consider B1, for which, in test [1], a half-maximal response (EC50) required 0.53 nM.

B2: DVD515 (bispecific antibody, human IgG1, kappa)
heavy: not shown
light: QAVVTQESALTTSPGETVTLTCRSSTGAVTTSNYANWVQEKPDHLFTGLIGGTNNRAPGVPARFSGSLIGDKAALTITGAQTEDEAIYFCALWYSNHWVFGGGTKLTVLGQPKAAPDIQMTQSPSSLSASVGDRVTITCRASQVIRRSLAWYQQKPGKAPKLLIYAASNLASGVPSRFSGSGSGTDFTLTISSLQPEDFATYYCQQSNTSPLTFGQGTKVEIKRTVAAPSVFIFPPSDEQLKSGTASVVCLLNNFYPREAKVQWKVDNALQSGNSQESVTEQDSKDSTYSLSSTLTLSKADYEKHKVYACEVTHQGLSSPVTKSFNRGEC
notes: DVD-Ig; outer AB073 (DLL4), inner AB071 (VEGF); HC short, LC short linker; also called DVD515H; DVD515L
For the molecule B2, in test [2], the EC50 was 0.2 nM.

B3: DVD527 (bispecific antibody, human IgG1, kappa)
heavy: not shown
light: B2 light
notes: DVD-Ig; outer AB073 (DLL4), inner AB071 (VEGF); HC long, LC short linker; also called DVD527H; DVD527L
In test [3], B3 showed an EC50 of 0.2 nM.

B4: DVD467 (bispecific antibody, human IgG1, kappa)
heavy: not shown
light: DIQMTQSPSSLSASVGDRVTITCRASQDVSTAVAWYQQKPGKAPKLLIYSASFLYSGVPSRFSGSGSGTDFTLTISSLQPEDFATTYYCQQSYTGTVTFGQGTKVEIKRTVAAPDIQMTQSPSSLSASVGDRVTITCRASQVIRRSLAWYQQKPGKAPKLLIYAASNLASGVPSRFSGSGSGTDFTLTISSLQPEDFATYYCQQSNTSPLTFGQGTKVEIKRTVAAPSVFIFPPSDEQLKSGTASVVCLLNNFYPREAKVQWKVDNALQSGNSQESVTEQDSKDSTYSLSSTLTLSKADYEKHKVYACEVTHQGLSSPVTKSFNRGEC
notes: DVD-Ig; outer AB015 (DLL4), inner AB071 (VEGF); HC short, LC short linker; also called DVD467H; DVD467L
The molecule B4 had an EC50 in test [2] of 0.54 nM.

B5: DVD479 (bispecific antibody, human IgG1, kappa)
heavy: not shown
light: B4 light
notes: DVD-Ig; outer AB015 (DLL4), inner AB071 (VEGF); HC long, LC short linker; also called DVD479H; DVD479L
Regarding B5, in test [3], a half-maximal effect (EC50) was put at 1.69 nM.

B6: DVD451 (bispecific antibody, human IgG1, kappa, L234A L235A)
heavy: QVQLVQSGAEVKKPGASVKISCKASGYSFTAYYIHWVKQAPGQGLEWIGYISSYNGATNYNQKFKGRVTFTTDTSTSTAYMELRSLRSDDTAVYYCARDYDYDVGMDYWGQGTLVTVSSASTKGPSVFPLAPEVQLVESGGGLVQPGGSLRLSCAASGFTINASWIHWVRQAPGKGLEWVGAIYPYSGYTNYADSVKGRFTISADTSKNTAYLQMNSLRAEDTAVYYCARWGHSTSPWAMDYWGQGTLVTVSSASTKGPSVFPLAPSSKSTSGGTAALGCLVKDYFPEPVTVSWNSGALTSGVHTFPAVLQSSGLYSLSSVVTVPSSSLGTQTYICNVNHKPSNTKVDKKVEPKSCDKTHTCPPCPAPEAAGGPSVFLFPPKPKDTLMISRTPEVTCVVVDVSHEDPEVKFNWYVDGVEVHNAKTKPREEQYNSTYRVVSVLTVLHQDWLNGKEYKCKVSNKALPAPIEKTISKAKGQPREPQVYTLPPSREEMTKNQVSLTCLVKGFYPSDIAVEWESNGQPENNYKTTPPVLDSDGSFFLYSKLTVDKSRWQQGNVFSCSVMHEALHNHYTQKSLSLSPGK
light: DIVMTQSPDSLAVSLGERATISCRASESVDNYGISFMKWFQQKPGQPPKLLIYAASNQGSGVPDRFSGSGSGTDFTLTISSLQAEDVAVYYCQQSKEVPWTFGGGTKVEIKRTVAAPSVFIFPPDIQMTQSPSSLSASVGDRVTITCRASQVIRRSLAWYQQKPGKAPKLLIYAASNLASGVPSRFSGSGSGTDFTLTISSLQPEDFATYYCQQSNTSPLTFGQGTKVEIKRTVAAPSVFIFPPSDEQLKSGTASVVCLLNNFYPREAKVQWKVDNALQSGNSQESVTEQDSKDSTYSLSSTLTLSKADYEKHKVYACEVTHQGLSSPVTKSFNRGEC
notes: DVD-Ig; outer AB069 (DLL4), inner AB071 (VEGF); HC long, LC long linker; also called DVD451H; DVD451L
With B6, a half-maximal effect in test [1] (EC50) was put at 0.4 nM.

B7: DVD473 (bispecific antibody, human IgG1, kappa)
heavy: not shown
light: DIQMTQSPSSLSASVGDRVTITCRASQDVSTAVAWYQQKPGKAPKLLIYSASFLYSGVPSRFSGSGSGTDFTLTISSLQPEDFATTYYCQQSYTGTVTFGQGTKVEIKRTVAAPSVFIFPPDIQMTQSPSSLSASVGDRVTITCRASQVIRRSLAWYQQKPGKAPKLLIYAASNLASGVPSRFSGSGSGTDFTLTISSLQPEDFATYYCQQSNTSPLTFGQGTKVEIKRTVAAPSVFIFPPSDEQLKSGTASVVCLLNNFYPREAKVQWKVDNALQSGNSQESVTEQDSKDSTYSLSSTLTLSKADYEKHKVYACEVTHQGLSSPVTKSFNRGEC
notes: DVD-Ig; outer AB015 (DLL4), inner AB071 (VEGF); HC long, LC long linker; also called DVD473H; DVD473L
As to B7, the EC50 in test [1] was 1.8 nM.

B8: DVD471 (DLL4 (seq. 1) N-terminal / VEGF (AB070) C-terminal DVD-Ig, long HC linker, long LC linker) (bispecific antibody, human IgG1, kappa, L234A L235A)
heavy: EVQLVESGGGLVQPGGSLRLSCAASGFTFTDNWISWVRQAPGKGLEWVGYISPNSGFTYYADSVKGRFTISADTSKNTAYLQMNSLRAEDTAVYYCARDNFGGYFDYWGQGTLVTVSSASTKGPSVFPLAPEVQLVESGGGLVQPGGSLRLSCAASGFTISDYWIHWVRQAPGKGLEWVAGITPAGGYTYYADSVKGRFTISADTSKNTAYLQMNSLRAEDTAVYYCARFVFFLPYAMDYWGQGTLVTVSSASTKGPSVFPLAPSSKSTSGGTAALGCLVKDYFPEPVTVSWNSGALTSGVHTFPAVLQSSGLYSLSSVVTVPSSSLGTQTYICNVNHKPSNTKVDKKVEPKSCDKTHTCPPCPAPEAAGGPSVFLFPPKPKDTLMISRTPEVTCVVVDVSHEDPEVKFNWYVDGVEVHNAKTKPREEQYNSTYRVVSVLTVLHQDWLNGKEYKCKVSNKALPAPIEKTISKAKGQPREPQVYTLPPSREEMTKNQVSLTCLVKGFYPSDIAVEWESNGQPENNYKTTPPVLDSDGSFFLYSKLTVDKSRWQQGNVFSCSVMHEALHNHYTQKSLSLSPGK
light: DIQMTQSPSSLSASVGDRVTITCRASQDVSTAVAWYQQKPGKAPKLLIYSASFLYSGVPSRFSGSGSGTDFTLTISSLQPEDFATTYYCQQSYTGTVTFGQGTKVEIKRTVAAPSVFIFPPDIQMTQSPSSLSASVGDRVTITCRASQDVSTAVAWYQQKPGKAPKLLIYSASFLYSGVPSRFSGSGSGTDFTLTISSLQPEDFATYYCQQSYTTPPTFGQGTKVEIKRTVAAPSVFIFPPSDEQLKSGTASVVCLLNNFYPREAKVQWKVDNALQSGNSQESVTEQDSKDSTYSLSSTLTLSKADYEKHKVYACEVTHQGLSSPVTKSFNRGEC
notes: also called DVD471H/DVD471L
Usually IC50 stands for the midpoint of a concentration-inhibition curve. B8: in test [4], the “DVD-Ig Inhibition of sFlt1 (IC50, nM)” value was 1.92 nM. Besides, the IC50 came out at 4.1 nM in test [5], 5.46 nM in test [6] and 2.66 nM in test [7].

B9: DVD482 (VEGF (seq. 1) N-terminal / DLL4 (seq. 1) C-terminal DVD-Ig, short HC linker, long LC linker) (bispecific antibody, human IgG1, kappa)
heavy: not shown
light: DIQMTQSPSSLSASVGDRVTITCSASQDISNYLNWYQQKPGKAPKVLIYFTSSLHSGVPSRFSGSGSGTDFTLTISSLQPEDFATYYCQQYSTVPWTFGQGTKVEIKRTVAAPSVFIFPPDIQMTQSPSSLSASVGDRVTITCRASQDVSTAVAWYQQKPGKAPKLLIYSASFLYSGVPSRFSGSGSGTDFTLTISSLQPEDFATTYYCQQSYTGTVTFGQGTKVEIKRTVAAPSVFIFPPSDEQLKSGTASVVCLLNNFYPREAKVQWKVDNALQSGNSQESVTEQDSKDSTYSLSSTLTLSKADYEKHKVYACEVTHQGLSSPVTKSFNRGEC
notes: also called DVD482H/DVD482L
Turning to B9, in test [4], the “DVD-Ig Inhibition of sFlt1 (IC50, nM)” value was 1.11 nM. In addition, the IC50 came out at 16.3 nM in test [5], 1.7 nM in test [6] and 2.65 nM in test [7].

B10: DVD491 (bispecific antibody, human IgG1, kappa)
heavy: not shown
light: DIQMTQSSSYLSVSLGGRVTITCKASDHINNWLAWYQQKPGNAPRLLISGATSLETGVPSRFSGSGSGKDYTLSITSLQTEDVATYYCQQYWSIPLTFGAGTKLELKRTVAAPDIQMTQSPSSLSASVGDRVTITCRASQVIRRSLAWYQQKPGKAPKLLIYAASNLASGVPSRFSGSGSGTDFTLTISSLQPEDFATYYCQQSNTSPLTFGQGTKVEIKRTVAAPSVFIFPPSDEQLKSGTASVVCLLNNFYPREAKVQWKVDNALQSGNSQESVTEQDSKDSTYSLSSTLTLSKADYEKHKVYACEVTHQGLSSPVTKSFNRGEC
notes: DVD-Ig; outer AB072 (DLL4), inner AB071 (VEGF); HC short, LC short linker; also called DVD491H; DVD491L
For the molecule B10, the EC50 in test [2] is 0.39 nM.

B11: DVD445 (bispecific antibody, human IgG1, kappa)
heavy: not shown
light: DIVMTQSPDSLAVSLGERATISCRASESVDNYGISFMKWFQQKPGQPPKLLIYAASNQGSGVPDRFSGSGSGTDFTLTISSLQAEDVAVYYCQQSKEVPWTFGGGTKVEIKRTVAAPDIQMTQSPSSLSASVGDRVTITCRASQVIRRSLAWYQQKPGKAPKLLIYAASNLASGVPSRFSGSGSGTDFTLTISSLQPEDFATYYCQQSNTSPLTFGQGTKVEIKRTVAAPSVFIFPPSDEQLKSGTASVVCLLNNFYPREAKVQWKVDNALQSGNSQESVTEQDSKDSTYSLSSTLTLSKADYEKHKVYACEVTHQGLSSPVTKSFNRGEC
notes: DVD-Ig; outer AB069 (DLL4), inner AB071 (VEGF); HC short, LC short linker; also called DVD445H; DVD445L
Take B11: in test [2], the response was half-maximal at 0.17 nM (EC50).

B12: DVD457 (bispecific antibody, human IgG1, kappa, L234A L235A)
heavy: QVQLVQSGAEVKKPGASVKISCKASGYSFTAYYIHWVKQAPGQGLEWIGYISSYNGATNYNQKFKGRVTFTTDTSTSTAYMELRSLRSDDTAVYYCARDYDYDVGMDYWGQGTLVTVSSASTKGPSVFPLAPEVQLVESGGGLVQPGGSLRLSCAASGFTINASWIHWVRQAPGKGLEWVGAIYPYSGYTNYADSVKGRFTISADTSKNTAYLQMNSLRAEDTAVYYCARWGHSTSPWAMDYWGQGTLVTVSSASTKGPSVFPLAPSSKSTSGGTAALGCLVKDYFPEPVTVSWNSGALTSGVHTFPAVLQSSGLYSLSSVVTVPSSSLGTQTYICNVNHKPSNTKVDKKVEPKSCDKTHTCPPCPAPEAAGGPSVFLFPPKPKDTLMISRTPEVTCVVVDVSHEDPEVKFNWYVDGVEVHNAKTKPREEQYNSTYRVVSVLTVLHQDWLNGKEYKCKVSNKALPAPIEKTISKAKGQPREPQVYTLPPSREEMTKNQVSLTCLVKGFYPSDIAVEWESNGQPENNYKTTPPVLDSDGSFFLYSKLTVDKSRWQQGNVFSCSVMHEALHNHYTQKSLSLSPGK
light: B11 light
notes: DVD-Ig; outer AB069 (DLL4), inner AB071 (VEGF); HC long, LC short linker; also called DVD457H; DVD457L
B12 came in with an EC50 in test [3] of 0.13 nM.

B13: DVD521 (bispecific antibody, human IgG1, kappa, lambda, L234A L235A)
heavy: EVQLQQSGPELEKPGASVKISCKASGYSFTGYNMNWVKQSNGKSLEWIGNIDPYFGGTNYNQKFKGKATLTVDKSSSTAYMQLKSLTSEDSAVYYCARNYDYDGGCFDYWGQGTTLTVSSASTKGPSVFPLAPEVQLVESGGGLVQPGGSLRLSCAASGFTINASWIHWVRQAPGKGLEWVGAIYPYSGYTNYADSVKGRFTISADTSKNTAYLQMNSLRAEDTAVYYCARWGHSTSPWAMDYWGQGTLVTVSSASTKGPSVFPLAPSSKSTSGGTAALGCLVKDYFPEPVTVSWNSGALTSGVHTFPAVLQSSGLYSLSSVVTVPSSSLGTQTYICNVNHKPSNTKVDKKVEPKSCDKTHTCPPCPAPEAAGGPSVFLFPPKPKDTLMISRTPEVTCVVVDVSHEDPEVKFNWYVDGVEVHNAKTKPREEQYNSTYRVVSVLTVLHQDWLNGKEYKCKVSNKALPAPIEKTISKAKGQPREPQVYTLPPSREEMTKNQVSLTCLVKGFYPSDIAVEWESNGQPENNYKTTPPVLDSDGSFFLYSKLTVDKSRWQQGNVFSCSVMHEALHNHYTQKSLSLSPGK
light: QAVVTQESALTTSPGETVTLTCRSSTGAVTTSNYANWVQEKPDHLFTGLIGGTNNRAPGVPARFSGSLIGDKAALTITGAQTEDEAIYFCALWYSNHWVFGGGTKLTVLGQPKAAPSVTLFPPDIQMTQSPSSLSASVGDRVTITCRASQVIRRSLAWYQQKPGKAPKLLIYAASNLASGVPSRFSGSGSGTDFTLTISSLQPEDFATYYCQQSNTSPLTFGQGTKVEIKRTVAAPSVFIFPPSDEQLKSGTASVVCLLNNFYPREAKVQWKVDNALQSGNSQESVTEQDSKDSTYSLSSTLTLSKADYEKHKVYACEVTHQGLSSPVTKSFNRGEC
notes: DVD-Ig; outer AB073 (DLL4), inner AB071 (VEGF); HC long, LC long linker; also called DVD521H; DVD521L
Turning to B13, it took 0.26 nM to reach a half-maximal effect in test [1] (EC50).
